Data taken from article doi:10.1101/2025.09.05.674548.

Biological target: T.ni-cell expression optimized human P2X4 construct (P2X4^T.ni) (human) (UniProt Q99571)

stoichiometry N: 3
Substance: T.ni-cell expression optimized human P2X4 construct (P2X4^T.ni) (from UniProt Q99571-1 1-388) (receptor)
